Laboratory results: patent US20030207791A1, “Materials and methods relating to the treatment of leukaemias” (priority 2000, published 2003)

How the values were obtained:
[1] = molecular target: nuclear corepressor (NCoR) (UniProt O75376); experiment: cell-based or functional assay
[2] = molecular target: PML-RAR (UniProt P29590); experiment: cell-based or functional assay
Chain of PML-RAR (UniProt P29590) (P29590 other isoform, or with tags, fused parts or gaps limits assumed): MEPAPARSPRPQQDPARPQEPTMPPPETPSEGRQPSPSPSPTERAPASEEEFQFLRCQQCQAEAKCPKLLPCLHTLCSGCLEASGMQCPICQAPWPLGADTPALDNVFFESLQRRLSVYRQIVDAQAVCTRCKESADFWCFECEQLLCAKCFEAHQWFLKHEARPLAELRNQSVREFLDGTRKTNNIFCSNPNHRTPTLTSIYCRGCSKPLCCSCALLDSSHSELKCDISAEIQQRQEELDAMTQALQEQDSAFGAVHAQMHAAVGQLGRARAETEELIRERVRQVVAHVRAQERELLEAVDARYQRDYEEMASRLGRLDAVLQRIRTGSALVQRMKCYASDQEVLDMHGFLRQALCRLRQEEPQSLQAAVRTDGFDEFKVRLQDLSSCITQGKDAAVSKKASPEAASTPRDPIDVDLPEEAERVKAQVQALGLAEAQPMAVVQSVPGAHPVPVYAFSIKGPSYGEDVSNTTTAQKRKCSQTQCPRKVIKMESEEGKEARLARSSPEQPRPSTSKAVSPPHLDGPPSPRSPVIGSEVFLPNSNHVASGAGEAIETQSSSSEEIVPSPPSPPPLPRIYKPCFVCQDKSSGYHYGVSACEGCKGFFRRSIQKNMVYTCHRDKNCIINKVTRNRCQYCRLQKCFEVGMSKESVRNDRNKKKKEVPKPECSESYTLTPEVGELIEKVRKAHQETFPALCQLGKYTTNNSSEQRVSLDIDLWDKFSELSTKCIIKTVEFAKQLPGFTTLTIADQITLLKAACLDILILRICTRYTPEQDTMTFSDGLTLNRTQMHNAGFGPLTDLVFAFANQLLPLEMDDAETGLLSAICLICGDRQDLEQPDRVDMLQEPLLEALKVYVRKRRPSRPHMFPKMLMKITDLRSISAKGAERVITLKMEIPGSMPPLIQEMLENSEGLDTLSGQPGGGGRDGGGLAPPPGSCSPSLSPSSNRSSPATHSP

Chain of PML-RAR (from UniProt P29590 1-552; P10276 61-462) (P29590 other isoform, or with tags, fused parts or gaps limits assumed): as above
Chain of nuclear corepressor (NCoR) (O75376 whole entry): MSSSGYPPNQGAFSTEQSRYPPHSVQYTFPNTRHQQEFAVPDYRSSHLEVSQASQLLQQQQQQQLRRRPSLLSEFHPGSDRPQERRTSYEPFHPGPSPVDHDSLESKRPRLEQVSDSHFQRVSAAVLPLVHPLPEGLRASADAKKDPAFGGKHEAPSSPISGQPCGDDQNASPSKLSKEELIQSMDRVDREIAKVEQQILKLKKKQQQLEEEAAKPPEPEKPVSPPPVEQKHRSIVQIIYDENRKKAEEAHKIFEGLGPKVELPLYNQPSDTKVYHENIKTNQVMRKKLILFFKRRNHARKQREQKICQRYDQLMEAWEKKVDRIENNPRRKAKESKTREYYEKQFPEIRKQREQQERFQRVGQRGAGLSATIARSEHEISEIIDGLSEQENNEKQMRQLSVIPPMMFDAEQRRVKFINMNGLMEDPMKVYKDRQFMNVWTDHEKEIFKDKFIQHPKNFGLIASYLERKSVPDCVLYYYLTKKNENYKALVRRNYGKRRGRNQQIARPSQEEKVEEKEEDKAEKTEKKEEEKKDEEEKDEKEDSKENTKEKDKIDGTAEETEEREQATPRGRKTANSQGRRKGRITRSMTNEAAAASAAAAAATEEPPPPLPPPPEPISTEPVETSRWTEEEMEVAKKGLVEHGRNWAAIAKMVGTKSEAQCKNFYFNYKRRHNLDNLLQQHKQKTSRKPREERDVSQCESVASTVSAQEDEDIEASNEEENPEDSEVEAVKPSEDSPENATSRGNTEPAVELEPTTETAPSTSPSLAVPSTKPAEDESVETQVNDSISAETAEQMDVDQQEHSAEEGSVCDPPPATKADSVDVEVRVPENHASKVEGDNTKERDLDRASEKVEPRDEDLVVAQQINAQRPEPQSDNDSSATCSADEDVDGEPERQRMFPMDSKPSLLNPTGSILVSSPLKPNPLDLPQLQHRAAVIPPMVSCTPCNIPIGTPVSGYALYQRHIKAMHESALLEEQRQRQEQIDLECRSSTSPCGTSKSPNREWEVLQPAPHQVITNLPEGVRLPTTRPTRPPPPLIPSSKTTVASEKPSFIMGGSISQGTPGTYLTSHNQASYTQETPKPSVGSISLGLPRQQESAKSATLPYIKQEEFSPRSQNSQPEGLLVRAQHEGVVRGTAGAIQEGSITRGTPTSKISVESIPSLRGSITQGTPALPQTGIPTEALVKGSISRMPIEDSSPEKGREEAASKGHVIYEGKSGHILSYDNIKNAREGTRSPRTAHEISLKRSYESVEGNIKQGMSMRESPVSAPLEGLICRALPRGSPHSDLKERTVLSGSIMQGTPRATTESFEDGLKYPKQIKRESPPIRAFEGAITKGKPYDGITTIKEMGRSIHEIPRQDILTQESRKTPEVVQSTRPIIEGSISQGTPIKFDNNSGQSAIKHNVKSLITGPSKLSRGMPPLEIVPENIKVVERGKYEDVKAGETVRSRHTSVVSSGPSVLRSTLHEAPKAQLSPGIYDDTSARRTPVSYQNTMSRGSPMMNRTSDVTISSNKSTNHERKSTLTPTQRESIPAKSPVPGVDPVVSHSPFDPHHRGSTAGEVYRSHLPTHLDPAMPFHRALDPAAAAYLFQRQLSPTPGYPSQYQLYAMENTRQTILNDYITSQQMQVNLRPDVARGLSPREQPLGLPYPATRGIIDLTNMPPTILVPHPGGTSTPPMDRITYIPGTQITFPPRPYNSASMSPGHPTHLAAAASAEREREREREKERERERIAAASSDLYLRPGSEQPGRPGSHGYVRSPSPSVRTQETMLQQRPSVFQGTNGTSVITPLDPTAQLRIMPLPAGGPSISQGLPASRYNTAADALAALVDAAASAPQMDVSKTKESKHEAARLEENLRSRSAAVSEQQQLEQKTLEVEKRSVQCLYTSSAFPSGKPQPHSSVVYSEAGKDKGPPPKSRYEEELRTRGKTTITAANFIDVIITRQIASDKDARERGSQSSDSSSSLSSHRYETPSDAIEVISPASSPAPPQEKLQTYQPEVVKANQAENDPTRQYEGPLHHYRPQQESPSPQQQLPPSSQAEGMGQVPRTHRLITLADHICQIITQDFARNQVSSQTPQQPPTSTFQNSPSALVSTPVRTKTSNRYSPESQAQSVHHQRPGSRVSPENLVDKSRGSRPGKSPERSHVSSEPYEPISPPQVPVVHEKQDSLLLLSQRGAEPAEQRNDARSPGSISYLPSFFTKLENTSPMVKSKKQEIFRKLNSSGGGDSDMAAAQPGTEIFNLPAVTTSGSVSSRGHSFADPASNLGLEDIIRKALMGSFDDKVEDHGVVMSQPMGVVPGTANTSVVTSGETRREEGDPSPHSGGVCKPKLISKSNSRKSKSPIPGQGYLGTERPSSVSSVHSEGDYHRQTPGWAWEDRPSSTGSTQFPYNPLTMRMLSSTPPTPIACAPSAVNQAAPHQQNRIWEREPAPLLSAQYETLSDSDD

| Substance | transcriptional repression of GAL4-VP16 activation of the RARE-G5-TATA reporter in HeLa cells, 50 ng expression vector [1] | percentage of differentiated, CD14+ U937 cells after vitamin D and TGFβ, PML-RAR induced (% CD14+ cells) [2] |
| --- | --- | --- |
| PML-RAR (from UniProt P29590 1-552; P10276 61-462) | 30 to 40% |  |
| coiled coil of PML (RBCC) (from UniProt P29590 1-360) |  | 70 |
